Measurements from article PMC6759063 (Oncogene, 2008).

Molecular target: cyclin D1 (human (endogenous in HK18), UniProt P24385 1-295)
Experiment: co-IP

Chain of cyclin D1 (P24385 whole entry): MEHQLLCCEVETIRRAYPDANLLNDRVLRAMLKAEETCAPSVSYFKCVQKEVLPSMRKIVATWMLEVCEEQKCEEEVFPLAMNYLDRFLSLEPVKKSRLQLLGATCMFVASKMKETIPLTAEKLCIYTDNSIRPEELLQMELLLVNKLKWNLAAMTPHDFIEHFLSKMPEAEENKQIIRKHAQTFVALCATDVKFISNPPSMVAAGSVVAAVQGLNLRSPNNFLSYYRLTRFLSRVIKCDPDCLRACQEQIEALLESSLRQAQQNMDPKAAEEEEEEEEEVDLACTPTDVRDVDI

fold decrease of the co-precipitated complex after LDIR (densitometry): ~50 times
B1: 14-3-3ζ (natural protein, human (endogenous in HK18), UniProt P63104 1-245, looked up)
chain: MDKNELVQKAKLAEQAERYDDMAACMKSVTEQGAELSNEERNLLSVAYKNVVGARRSSWRVVSSIEQKTEGAEKKQQMAREYREKIETELRDICNDVLSLLEKFLIPNASQAESKVFYLKMKGDYYRYLAEVAAGDDKKGIVDQSQQAYQEAFEISKKEMQPTHPIRLGLALNFSVFYYEILNSPEKACSLAKTAFDEAIAELDTLSEESYKDSTLIMQLLRDNLTLWTSDTQGDEAEAGEGGEN
